test: soluble on expression in E. coli; label from the status in PepcDB or PDB records

| Sequence | soluble on expression in E. coli |
| --- | --- |
| MHRDSCPLDCKVYVGNLGNNGNKTELERAFGYYGPLRSVWVARNPPGFAFVEFEDPRDAADAVRELDGRTLCGCRVRVELSNGEKRSRNRGPPPSWGRRPRDDYRRRSPPPRRRSPRRRSFSRSRSRSLSRDRRRERSLSRERNHKPSRSFSRSRSRSRSNERK | soluble |
| MHRELLDALSVITEEEQRILDEQRGIDPQLYTEKKELIVDSEKLLKKGKLIQVRPHTRFVNFPKHKHNYVEVIYMCQGTTTHILNGSKVILEAGDLLFLNQNAEQEILPAGEQDIAVNFIVLPEFFDTAFSMMDMEEENALKEFLVGALCGKNDNTSYLYFHVAEILPIQNLVENMVWTIFYDQPNKRRCNQITMGLLLLQLLNHVDRMETGTAAFDRELTG | not soluble |
| MHRSTFIRTSGTSSRTLTARYRSQYTGLLVARVLFSTSTTRAQGGNPRSPLQIFRDTFKKEWEKSQELQENIKTLQDASGKLGESEAYKKAREAYLKAQRGSTIVGKTLKKTGETMEHIATKAWESELGKNTRKAAAATAKKLDESFEPVRQTKIYKEVSEVIDDGESSRYGGFITKEQRRLKRERDLASGKRHRAVKSNEDAGTAVVATNIESKESFGKKVEDFKEKTVVGRSIQSLKNKLWDESENPLIVVMRKITNKVGGFFAETESSRVYSQFKLMDPTFSNESFTRHLREYIVPEILEAYVKGDVKVLKKWFSEAPFNVYAAQQKIFKEQDVYADGRILDIRGVEIVSAKLLAPQDIPVLVVGCRAQEINLYRKKKTGEIAAGDEANILMSSYAMVFTRDPEQIDDDETEGWKILEFVRGGSRQFT | not soluble |
| MHRYPRPVSPPVYGPYGSGGHYNPYFHYGVSSFPSAPVHWPHLPSGHAAPPSYPMPYPKPGPLLPPPRPSFLAQFKNSDGTYDINKMMSTVGQMINTVNQVNGVLKGLLGTFKK | not soluble |
| MHTAEFLETEPTEISSVLAGGYNHPLLRQWQSERQLTKNMLIFPLFISDNPDDFTEIDSLPNINRIGVNRLKDYLKPLVAKGLRSVILFGVPLIPGTKDPVGTAADDPAGPVIQGIKFIREYFPELYIICDVCLCEYTSHGHCGVLYDDGTINRERSVSRLAAVAVNYAKAGAHCVAPSDMIDGRIRDIKRGLINANLAHKTFVLSYAAKFSGNLYGPFRDAACSAPSNGDRKCYQLPPAGRGLARRALERDMSEGADGIIVKPSTFYLDIMRDASEICKDLPICAYHVSGEYAMLHAAAEKGVVDLKTIAFESHQGFLRAGARLIITYLAPEFLDWLDEEN | soluble |
| MHTDINALFAALWQDYIQMTPSAAKVHELLGHGKPIINDHIALRTFNIAKVNLAVLAEHFTSLGYVACGDYKFEQKKLIAKHFEHPDATQPKVFISELLVEEFSSALQSTIQGLIAQVDEQATKADNFIYSGRHWTLDSKTYEALLEESEYAAWVAAFGYRANHFTVSINHLEGFDTLESVNDALKQAGFVLNTSGGEIKGSPEVLLEQSSTMADKIAVEFSDATVEIPSCFYEFALRYPKANGELYTGFVAASADKIFESTNAKKAAAALEHHHHHH | not soluble |
| MHTRAEKLEAFGRLLDVLDTLREQCPWDRKQTNESLRTNTIEEVYELSEALLGECPDDIRKELGDVLLHVAFYAKIGEEKGQFDIASVCHALCDKLIYRHPHIYGNVQVENAAEVVRNWEQLKLREKDGNKSVLSGVPKSLPALVKSYRMQEKAAGVGFDWEQREQVWPKVEEELNEVRGAIVSEDPDAMEAEFGDLLFAVVNAARLYGINPDNALERTNRKFDSRFSYVEQRAKQQGKALRDMTLSEMDALWNEAKQKGL | not soluble |
| MHTVAVSGPPETGFRSVVCARRWLANPYAPGRPTVRCMNVDDHAEELASDLGVDKAEVKENLQNLVEYSVPLEEAKRSLRRKYGDDDGAPSGGPTAVDIADVDTDSGNVTVTATVLTAGKRSIRYQGDDHVIGEGELADETGRISYTAWEEFGLEPGDTVTIGNASVREWEGSPELNFGESATVTSADGDIEMAAEVGGDRDLAALSAGDRGRNVEAVVTEVEERTIDGRDGETEILSGVLGDETARLPFTDWDPHGEIEAGASVRIEDVYVREFRGVPSVNVSEFSTVERLDHEVEVGGPTRMAIRDAVARGGAYDVELVGSVIDIRDGSGLIKRCPDCGRVVQTGQCRQHGAVEAEDDLRVKAVLDDGTDSVTAILDRELTADVYGGTLADAREQAREAMDHSVVADTIAEDVVGREFRVRGHLSVDEYGANLETIAFAERDDDPAARAAAFLAEVDALEHHHHHH | not soluble |
| MHVDPIVEALIIRRKEHGLSREQMANIAGMSVKTYQRIERGESDLKLSQYRSILRSLNLTDLDIALDIRGIEHVTAEDLVTVARLLSPEAQSLLVRLLSLVLEQRSDPNAS | not soluble |
| MHVGIVAQRGNERATSLAGEIREQLRALEVTVWVDTATAEALACAGECGRDTTAFTDCDLVVSIGGDGTFLFAARGAGATPILGVNLGEVGFLNAVAPADAVEAVREEVNRYRETGAVRCREVPRVVAAGDGWASTPALNEVAIQGEQRGHGHGVAVDVRVDGSQYEATRADGVLVATPTGSTAYNLSEGGPLVQPSVDALVVTEMCGADALPPLVTGLDSEIRIRVETLDDGGEGRVVVASDGGRLTRVDPPVEMTVTAADEPARVAGPAADFFEALSKLELEHHHHHH | not soluble |
| MHYQPKQDLLQNRIILVTGASDGIGREAALTYARYGATVILLGRNEEKLRRVAQHIADEQHVQPQWFTLDLLTCTAEECRQVADRIAAHYPRLDGVLHNAGLLGEIGPMSEQDPQIWQDVMQVNVNATFMLTQALLPLLLKSDAGSLVFTSSSVGRQGRANWGAYATSKFATEGMMQVLADEYQNRSLRVNCINPGGTRTSMRASAFPTEDPQKLKTPADIMPLYLWLMGDDSRRKTGMTFDAQPGRKPGIAQ | not soluble |
| MHYSSGNYEAFVRPRKSESADKKTAWLVGSGLAGLAGAAFLIRDGGVAGERITILEELDVPGGALDGLDVPEKGFVIRGGREMEEHFECLWDLYRSIPSLEVEDASVLDEFYRLNKDDPNFSLQRATQNQGQDAPDKALLTLNDRAQKDLLSVFLATREEMENKRINEVFSEDFLKSNFWLYWRTMFAFEEWHSALEMKLYLHRFIHHIGNLADFSSLKFNRYNQYESMVLPLVKWLQDHGVRFRYGIEVTDVDFDIHAEGKQATRIHWTEKGVEGGVDLGPDDLVLITIGSLTENSDNGDHHTPAKLREGPAPAWDLWRRIAAKDPAFGRPDVFGAHVTETKWASATITALDQRIPQYVEKIAKRNPFTGKIVTGGIVTVKDSSWLMSWAVHRQPHFKKQPKDQMIAWLYALFVDRPGDYVKKPMLDCTGEEITQEWLYHLGVPVEDIPELAAAGANTVPVMMPYITAFFMPRQAGDRPDVVPEGAVNFAFIGQFAESKQRDCIFTTEYSVRTPMEAVYTLMNVERGVPEVFNSTYDIRTLLAAIGPLRDGKGIDLPGPSFLHKLLMKKLEGTEIAELLKEFHLISELEHHHHHH | not soluble |
| MIACICAITVMAQVQTHDVKGVVFDRRQQPIVGALVTAKGTNISTITDVDGKFLLQEVPLSVKKVVVTSIGMETREVDLNVPVQLTGKRKKVSFVAHAGLSMSKYTIYGSDFKVGYEFGLGIEVRMSKRWAFQPTLQICNHGAEFNAERYGVKYQETWNPVSLDLPMLFILRCPIARKMNLAFSMGPVFSYGFAGKVKASETGKPDEEYDIYSSEYEYDYSGGKHSLLHPFSFGVAYGIGVEYKKWLAGISGKSMCLGQDDEGFEAKEHNLVLTLGVIYRF | not soluble |
| MIASKMPREVRLPSFQIEIIGAMSTYKIYCQSLLPLSHSALLIMVAPSFPLLNLPEKSLKEVFCNMSVVQQTCISMISEKTKNLVRKFHIFKQVQIWLDFSDSLRCYMSLKGISLSIWHTPMWH | not soluble |
| MIDENLIKINLICESQDEVFHYLATLVVDNGYANNTESVVQALKLRESEGTTGMMEGFAIPHAKDKSIVKPSIAILKLKTGVEWHSMDGQLINNVIALFIPEKEAGTTHLKVLSQIARLLVNKTFKEKIKEADTILELKELLTEKLDLTS | not soluble |
| MIDLENQEREIINLMFSQRISWLAAVRIRHKLSLAEVSKMLGISINSLKQIEKTERLSSNIKSKMAEIYGCPPELLICPSWMTAEHK | not soluble |

— the DeepSol protein solubility set
